{"source": "paper doi:10.1101/2023.11.19.566349", "test_in_all_cases": "EMSA", "key": {"[1]": {"target": "T1, Tric1 SAM Gly241Glu (Arabidopsis thaliana, UniProt Q9SCK3 191-261, G241E)", "T1 sequence": "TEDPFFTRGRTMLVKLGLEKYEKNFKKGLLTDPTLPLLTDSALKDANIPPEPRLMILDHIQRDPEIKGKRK"}, "[2]": {"target": "T2, Tric1 SAM Asp235Ala (Arabidopsis thaliana, UniProt Q9SCK3 191-261, D235A)", "T2 sequence": "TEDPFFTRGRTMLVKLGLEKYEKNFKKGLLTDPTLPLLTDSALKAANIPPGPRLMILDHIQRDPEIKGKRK"}, "[3]": {"target": "T3, Tric1 SAM Asp235Ala:Gly241Glu (Arabidopsis thaliana, UniProt Q9SCK3 191-261, D235A;G241E)", "T3 sequence": "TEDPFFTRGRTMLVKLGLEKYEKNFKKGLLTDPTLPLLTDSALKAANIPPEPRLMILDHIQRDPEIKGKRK"}, "[4]": {"target": "T4, Tric1 SAM domain WT (Arabidopsis thaliana, UniProt Q9SCK3 191-261)", "T4 sequence": "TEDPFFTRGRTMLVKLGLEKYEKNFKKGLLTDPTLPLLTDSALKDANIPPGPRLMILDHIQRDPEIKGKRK"}}, "data": [{"binder": "UCGCUUUGCAUGCGA (structured_RNA)", "note": "[tRNAala T-arm]", "values": [{"measurement": "binding result", "setting": "[1]", "result": "no binding"}, {"measurement": "binding result", "setting": "[2]", "result": "no binding"}, {"measurement": "binding result", "setting": "[3]", "result": "no binding"}, {"measurement": "binding result", "setting": "[4]", "result": "binds"}]}]}
